According to the supplement of paper PMC7877785:
± gives the uncertainty stated by the source.

Assay: self-splicing fitness, log relative to wild type (ln ratio); higher = more splicing; Tetrahymena group I intron in knt gene, E. coli kanamycin selection, DiMSum; sequences stand for … in CUCUCU…GGAGGGAAAAGUUAUCAGGCAUGCACCUGGUAGCUAGUCUUUAAACCAAUAGAUUGCAUCGGUUUAAAAGGCAAGACCGUCAAAUUGCGGGAAAGGGGUCAACAGCCGUUCAGUACCAAGUCUCAGGGGAAACUUUGAGAUGGCCUUGCAAAGGGUAUGGUAAUAAGCUGACGGACAUGGUCCUAACCACGCAGCCAAGUCCUAAGUCAACAGAUCUUCUGUUGAUAUGGAUGCAGUUCACAGACUAAAUGUCGGUCGGGGAAGAUGUAUUCUUCUCAUAAGAUAUAGUCGGACCUCUCCUUAAUGGGAGCUAGCGGAUGAAGUGAUGCAACACUGGAGCCGCUGGGAACUAAUUUGUAUGCGAAAGUAUAUUGAUUAGUUUUGGAGUACUCGUGGUCG
Procedure, shortened: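 A randomised library covering all eight P1ex-region intron nucleotides was built with the intron in the knt kanamycin-resistance gene on pET-22b(+) and held in E. coli BL21(DE3). Cells were grown overnight at 37°C or 30°C on LB agar, with or without 25 μg/mL kanamycin, plus 100 μg/mL carbenicillin, 50 μM IPTG and 0.2% rhamnose, and pooled colonies were amplicon-sequenced on an Illumina HiSeq 2500. DiMSum fitness is the error-weighted combination of wild-type-normalised replicate fold changes, kanamycin versus none.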

| Sequence | self-splicing fitness (ln) (30 °C) | self-splicing fitness (ln) (37 °C) |
| --- | --- | --- |
| ACGAAGCAAUAUUACGCGCG | -0.867 ± 0.12 | -0.486 ± 0.18 |
| UGACAGCAAUAUUACGAAAU | -3.12 ± 0.19 | -2.74 ± 0.24 |
| UUGGAGCAAUAUUACGCAGU | -1.93 ± 0.34 | -2.84 ± 0.48 |
| AAGGAGCAAUAUUACGCUCU | -3.15 ± 0.18 | -3.85 ± 0.42 |
| AACGAGCAAUAUUACGGGCG | -3.07 ± 0.15 | -1.11 ± 0.19 |
| UACAAGCAAUAUUACGGGCC | -3.08 ± 0.23 | -2.55 ± 0.22 |
| UAGAAGCAAUAUUACGCGAU | -2.95 ± 0.41 | – |
| CUCGAGCAAUAUUACGUAAU | – | -1.42 ± 0.29 |
| GCUAAGCAAUAUUACGAUCC | -0.136 ± 0.12 | -0.278 ± 0.14 |
| CCUAAGCAAUAUUACGUAUA | -3 ± 0.15 | -2.67 ± 0.17 |
| CCGGAGCAAUAUUACGGCGU | -4.4 ± 0.46 | -2.84 ± 0.26 |
| UAAUAGCAAUAUUACGUCCA | -0.695 ± 0.1 | -0.122 ± 0.11 |
| GUGAAGCAAUAUUACGUAGU | -2.19 ± 0.064 | -1.1 ± 0.08 |
| GGCAAGCAAUAUUACGGCGG | -2.44 ± 0.19 | -1.13 ± 0.2 |
| GUAAAGCAAUAUUACGAGUU | -1.12 ± 0.093 | -0.815 ± 0.12 |
| GAGAAGCAAUAUUACGUCUU | -2.33 ± 0.23 | -2.92 ± 0.36 |
| AAGAAGCAAUAUUACGGACG | -0.677 ± 0.071 | 0.0583 ± 0.11 |
| GAUAAGCAAUAUUACGACGC | 0.303 ± 0.055 | -0.0161 ± 0.063 |
| CAUUAGCAAUAUUACGCAGG | -2.18 ± 0.12 | -1.53 ± 0.13 |
| GCCUAGCAAUAUUACGAUCG | -2.05 ± 0.15 | -1.36 ± 0.18 |

| Sequence | self-splicing fitness (ln) (30 °C) | self-splicing fitness (ln) (37 °C) |
| --- | --- | --- |
| AUGGAGCAAUAUUACGCCUU | -2.22 ± 0.18 | -2.41 ± 0.3 |
| GCCGAGCAAUAUUACGUUUA | -2.56 ± 0.17 | 0.181 ± 0.12 |
| UCCUAGCAAUAUUACGAUCG | -3.36 ± 0.21 | -2.33 ± 0.26 |
| AUUCAGCAAUAUUACGGUUC | -1.64 ± 0.13 | -0.855 ± 0.16 |
| UGAGAGCAAUAUUACGGAUU | -3.39 ± 0.29 | – |
| UCUAAGCAAUAUUACGCCUG | -1.6 ± 0.13 | -1.14 ± 0.2 |
| AUCUAGCAAUAUUACGCUUU | -2.3 ± 0.17 | -0.151 ± 0.12 |
| UAGGAGCAAUAUUACGCUAC | – | 0.223 ± 0.43 |
| GGGUAGCAAUAUUACGCUGG | -2.61 ± 0.35 | -2.45 ± 0.42 |
| CUUAAGCAAUAUUACGCGCA | -3.58 ± 0.35 | – |
| UUUCAGCAAUAUUACGGAUU | -1.63 ± 0.083 | -0.55 ± 0.097 |
| CUGUAGCAAUAUUACGGGAC | -1.04 ± 0.18 | -0.365 ± 0.21 |
| GUGUAGCAAUAUUACGAGUU | -2.8 ± 0.15 | -1.39 ± 0.11 |
| UCUGAGCAAUAUUACGACAU | -3.788 ± 0.034 | -2.73 ± 0.044 |
| AACUAGCAAUAUUACGAGUC | -3.83 ± 0.33 | -1.77 ± 0.19 |
| GAACAGCAAUAUUACGAACC | -1.6 ± 0.12 | -0.809 ± 0.13 |
| ACCCAGCAAUAUUACGUUAC | -3.24 ± 0.14 | -1.13 ± 0.14 |
| UCUCAGCAAUAUUACGGAUC | -3.82 ± 0.32 | -1.52 ± 0.13 |
| CUAUAGCAAUAUUACGAGCA | -2.91 ± 0.25 | -2.36 ± 0.33 |
